The values that follow come from paper PMC3794858, “NECAP 1 Regulates AP-2 Interactions to Control Vesicle Size, Number, and Cargo During Clathrin-Mediated Endocytosis” (PLoS Biology, 2013).

For experiment [1], the target named is T1, 15N-labeled PHear (NECAP 1 PHear domain, GST cleaved) (mouse, UniProt Q9CR95 1-133).
T1 construct: NECAP 1, PHear domain, residues 1-133; Uniformly 15N-labelled for NMR; source: E. coli BL21, purified (GST fusion cleaved with thrombin, S75 gel filtration)
T1 sequence (looked up): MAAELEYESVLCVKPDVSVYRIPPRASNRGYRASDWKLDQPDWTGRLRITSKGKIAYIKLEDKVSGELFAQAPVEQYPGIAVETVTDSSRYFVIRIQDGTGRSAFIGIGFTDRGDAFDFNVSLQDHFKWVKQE
Kind of experiment: NMR titration; 1H-15N HSQC of 15N-labeled PHear (0.15 mM) titrated with unlabeled peptide, 30°C, 25 mM sodium phosphate pH 7.2, 75 mM NaCl, 0.5 mM EDTA, 3 mM DTT. The note with it: both partners purified.

The target in experiment [2] is T2, 15N-labeled PHear (NECAP 1 PHear domain, GST cleaved) (mouse, UniProt Q9CR95 1-133).
T2 chain: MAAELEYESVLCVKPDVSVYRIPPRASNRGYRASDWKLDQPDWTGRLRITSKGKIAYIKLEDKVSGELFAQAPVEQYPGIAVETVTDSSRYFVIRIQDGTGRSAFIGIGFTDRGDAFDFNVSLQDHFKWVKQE
Briefly: NMR; I106 peak.

Experiment [3] deals with T2, 15N-labeled PHear (NECAP 1 PHear …). Kind of experiment: NMR; L47 peak.

Where no end group is shown, it is not given here.

B1: AP180 FxDxF-motif peptide (Ac-VDIFGDAFAAS) (peptide)
peptide: Ac-VDIFGDAFAAS
notes: peptide derived from AP180; also called AP-180 peptide; FxDxF-motif peptide derived from AP180; source: synthetic peptide (Sheldon Biotechnology Center, McGill University), HPLC purified
Consider B1, for which the binding result in experiment [1] is given as “binds”.

B2: β2-linker peptide (Ac-SQGDLLGDLLNLDLPPVN) (peptide)
peptide: Ac-SQGDLLGDLLNLDLPPVN
notes: peptide from the linker of β2-adaptin; the printed peptide has no G there; also called unlabeled β2-linker; source: synthetic peptide (Sheldon Biotechnology Center, McGill University), HPLC purified
For the molecule B2, the Kd (as a rule, the constant that tells how readily two partners part at equilibrium) in experiment [2] turned out to be 420 µM; in experiment [1] it was 480 µM; in experiment [3], 540 µM.
